Tests used:
[1] = target: HER2 on human cancer cell lines (NCI-N87, BT474, SK-OV-3, SNU-1, SNU-5, SNU-601) (human) (UniProt P04626); experiment: flow cytometry Fc load, SNU5 cells
[2] = target: human HER2 on CT26-HER2 cell line (Clone #2-60) (human) (UniProt P04626); experiment: flow cytometry Fc load, CT26-HER2 (#2-60) cells
[3] = target: HER2 on human cancer cell lines (NCI-N87, BT474, SK-OV-3, SNU-1, SNU-5, SNU-601) (human) (UniProt P04626); experiment: flow cytometry Fc load, SNU601 cells
[4] = target: human FcγIIA (R&D systems, 1330-CD) (human) (UniProt P12318); experiment: BLI, His-FcγRIIA on HIS1K sensor
human FcγIIA (R&D systems, 1330-CD) (human), sequence (P12318 36-218 H167R): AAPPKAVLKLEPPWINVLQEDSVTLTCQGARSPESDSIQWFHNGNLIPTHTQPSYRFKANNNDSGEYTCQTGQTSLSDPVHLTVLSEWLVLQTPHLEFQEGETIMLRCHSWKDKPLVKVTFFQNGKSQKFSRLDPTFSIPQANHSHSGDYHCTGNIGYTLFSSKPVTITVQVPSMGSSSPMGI

[5] = target: human FcγRI (R&D systems, 1257-FC) (human) (UniProt P12314); experiment: BLI, His-FcγRI on HIS1K sensor
human FcγRI (R&D systems, 1257-FC) (human), sequence (P12314 16-288 limits assumed): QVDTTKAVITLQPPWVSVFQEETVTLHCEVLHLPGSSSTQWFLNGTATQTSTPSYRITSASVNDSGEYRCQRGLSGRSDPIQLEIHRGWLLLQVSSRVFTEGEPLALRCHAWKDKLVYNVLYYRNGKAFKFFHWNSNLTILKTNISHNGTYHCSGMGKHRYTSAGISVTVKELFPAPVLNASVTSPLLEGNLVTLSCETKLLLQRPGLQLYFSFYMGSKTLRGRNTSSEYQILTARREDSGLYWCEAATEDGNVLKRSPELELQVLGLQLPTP

[6] = target: human HER2 recombinant protein (R&D systems, 1129-ER) (human) (UniProt P04626); experiment: BLI sequential binding on HER2-loaded sensor
[7] = target: HER2 on human cancer cell lines (NCI-N87, BT474, SK-OV-3, SNU-1, SNU-5, SNU-601) (human) (UniProt P04626); experiment: flow cytometry Fc load, SK-OV-3 cells
[8] = target: HER2 on human cancer cell lines (NCI-N87, BT474, SK-OV-3, SNU-1, SNU-5, SNU-601) (human) (UniProt P04626); experiment: flow cytometry Fc load, SNU-5 cells
[9] = target: HER2 on human cancer cell lines (NCI-N87, BT474, SK-OV-3, SNU-1, SNU-5, SNU-601) (human) (UniProt P04626); experiment: flow cytometry Fc load, NCI-N87 cells
[10] = target: HER2 on human cancer cell lines (NCI-N87, BT474, SK-OV-3, SNU-1, SNU-5, SNU-601) (human) (UniProt P04626); experiment: flow cytometry Fc load, SNU-1 cells
[11] = target: HER2 on human cancer cell lines (NCI-N87, BT474, SK-OV-3, SNU-1, SNU-5, SNU-601) (human) (UniProt P04626); experiment: flow cytometry Fc load, BT474 cells

| GMFI [1] | GMFI [2] | GMFI [3] | Kd [4] [µM] | Kd [5] [µM] | binding signal (nm shift, value at 4140 s minus value at 1260 s) [6] [nm] | GMFI [7] | GMFI [8] | GMFI [9] | GMFI [10] | GMFI [11] | Substance |
| --- | --- | --- | --- | --- | --- | --- | --- | --- | --- | --- | --- |
| 101 | 150 | 173 | 0.31 | 0.00246 | – | – | – | – | – | – | human IgG1 (Bio X cell, BE0297) (antibody) |
| – | – | – | 0.359 | – | – | – | – | – | – | – | pertuzumab (antibody) |
| – | – | – | – | – | 0.923 | 6450 | 1390 | 137000 | 2690 | 38700 | trastuzumab + pertuzumab (combination) |
